Experimental findings from patent publication US20240358739A1, “COMPOSITION AND METHOD TO TREAT CACHEXIA” (THE TRUSTEES OF INDIANA UNIVERSITY, priority 2021, published 2024) are described below.

Assay [1] has as its system osteoclast precursor cells. The assay can be described thus: Osteoclast differentiation assay, pre-osteoclast cultures exposed to rmIGFBP1, TRAP stain. The class given is cell-based, mice. The note with it: 50 ng/mL recombinant IGFBP1, 48 h. The protocol:
The quantification of osteoclast differentiation in pre-osteoclast cultures exposed to rmIGFBP1 and stained for TRAP (n=5) is shown in FIG. 6. Furthermore, quantification of osteoclast differentiation in pre-osteoclasts co-cultured with AML12 previously exposed to CRC and treated with anti-IGFBP1 antibody (n=5) is shown in FIG. 7. The osteoclast differentiation assay was conducted as follows:
Bone marrow cells were isolated from at least two 4-month-old wild-type male C57BL/6 mice by flushing the bone marrow out from both tibiae and femora with 10% FBS and 1% P/S-α-MEM. Cells were cultured for 48 h. Non-adherent cells were then collected and 14×10^4 cells/cm2 were seeded on 96-well plates and cultured with RANKL 80 ng/ml (PeproTech) and M-CSF 20 ng/ml (PeproTech) added to induce osteoclast differentiation, the media was changed every 2 days. After 3 days of differentiation, 50 ng/mL of recombinant IGFBP1 or Vehicle (Control) was added to the osteoclast differentiation media for 48 h, after which cells were fixed for staining. […] Images were acquired using Axio Observer. Z1 motorized microscope (Zeiss, Oberkochen, Germany).

In assay [2] the test system is C2C12 myotubes. As to the kind of experiment: C2C12 myotube size after exposure to recombinant IGFBP1. The note with it: recombinant IGFBP1 100 ng/ml, 48 hours. The class given is cell-based. The protocol: (§1) C2C12 myotubes were produced by exposing fully confluent myoblasts to DMEM containing 2% horse serum, 2 mM L-glutamine and 1% P/S, replacing the media every other day for 5 days. At 5 days post differentiation, myotubes were exposed to recombinant IGFBP1 (100 ng/ml) or empty vehicle control for 48 hours. FIG. 9 presents the results.
For myotube size: Differentiated C2C12 myotubes were fixed in ice-cold acetone: methanol for ten minutes, blocked for 1 h at room temperature and incubated overnight at 4° C. with an anti-myosin heavy chain antibody (MF-20, 1:100, Developmental Studies Hybridoma Bank). The following day, myotubes were incubated for 1 h at room temperature with an AlexaFluor 594-labeled secondary antibody (A11032, 1:500; Invitrogen). Myotubes were observed under an Axio Observer.Z1 motorized microscope (Zeiss) and analysis was performed by measuring the diameter of the narrowest portion along the multi-nucleate fibers (n=600 fibers per condition) using ImageJ software.

Assay [3] relates to HSMM myotubes. The assay can be described thus: HSMM myotube atrophy after recombinant IGFBP1. The assay is classed as cell-based, human.
For assay [4], the system named is ITGB1 signaling. The assay can be described thus: Western blotting of ITGB1 signaling in myotubes exposed to recombinant IGFBP1. The assay is classed as cell-based. The protocol:
as §1
For western blots (FIG. 9): Cell layer protein extracts were obtained by homogenizing entire well surface in ice-cold RIPA buffer [150 mM NaCl, 1.0% NP-40, 0.5% sodium deoxycholate, 0.1% SDS and 50 mM Tris (pH 8.0)] supplemented with inhibitor cocktails for proteases (11697498001, Roche) and phosphatases (78428, Thermo Fisher Scientific). Following a 10-min incubation on ice, cellular debris was removed by centrifugation (15 min, 14,000 g at 4° C.), the supernatant was collected and protein concentration was assessed using the BCA protein assay method (Thermo Fisher Scientific). Protein extracts (30 μg) were electrophoresed in 4-15% gradient SDS Criterion TGX precast gels (Bio-Rad) and transferred to nitrocellulose membranes (30 min at 100 V; Bio-Rad). […] Blots were again serially washed using PBST and then visualized and quantified using the Odyssey Infrared Imaging System (LI-COR Biosciences). […]
On the technique in general: Immunoblotting shows a protein as a band on a membrane.

B1: recombinant IGFBP1: recombinant insulin-like growth factor binding protein 1 (protein)
chain: APQPWHCAPCTAERLGLCPPVPASCPEISRPAGCGCCPTCALPMGAACGVATARCAQGLSCRALPGEPRPLHALTRGQGACVPEPAAPATSTLFSSQHEEAKAAVVSADELSESPEMTEEQLLDSFHLMAPSREDQPILWNAISTYSSMRAREIADLKKWKEPCQRELYKVLERLAAAQQKAGDEIYKFYLPNCNKNGFYHSKQCETSLDGEAGLCWCVYPWSGKKIPGSLETRGDPNCHQYFNVHN
Take B1: the “differentiation of osteoclast precursor cells” value in assay [1] is “sufficient to promote differentiation”; in assay [1] (listed as Recombinant IGFBP1), “promoted”. The “atrophy of C2C12 myotubes” value is “promoting atrophy” in assay [2] and “promoted” in assay [2] (listed as Recombinant IGFBP1). In addition, in assay [3], the “atrophy of HSMM myotubes” value is on record as “promoting atrophy”. Moreover, in assay [4], the ERK phosphorylation entry was “increased”. For the same molecule, the FAK phosphorylation entry in assay [4] was “increased”.
